Measurements taken from the supplement of paper PMC9170038.

Test system: MS2 coat protein
Assay: apparent KD of MS2 coat protein; designed switch direction (-1 OFF switch, 1 ON switch): -1; higher = weaker reporter binding
Outline: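 Transcription of designed RNA switches on Illumina chips was done by stalled E. coli RNA polymerase. SNAP-549-labelled MS2 coat protein was then titrated in doubling steps from 0.7 or 1.5 nM to 3 µM, with steps of 0.8–1.5 h at the lowest and 10–20 min at the highest concentration. The per-design median over clusters of curve-fitted normalised fluorescence is reported as apparent KD.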

[1] = input ligand: microRNA oligo, concentration not stated
[2] = Eterna round: R95, input ligand: FMN 200 uM
[3] = Eterna round: R95, input ligand: microRNA oligo, concentration not stated
[4] = Eterna round: R95, input ligand: none

Sequence | apparent KD of MS2 coat protein (input ligand: FMN 200 uM) [µM] | apparent KD of MS2 coat protein [1] [µM] | apparent KD of MS2 coat protein (input ligand: none) [µM] | apparent KD of MS2 coat protein [2] [µM] | apparent KD of MS2 coat protein [3] [µM] | apparent KD of MS2 coat protein [4] [µM]
CUCCUACUUGUAGGAUAUCAGAGAUAACAUGAGGAUCACCCAUGUUGGGUCAUCAACUCAGUCGGUGAGAAGGACAGAAGUUGG [Eternabot solution 42] (Eterna round: R96, puzzle: Exclusion NG 2) | 0.0961 | 0.0686 | 0.0632 |  |  | 
UGUUAAGCAGGAUAUACGUUGUCCUAUUAAACUAGUGAAGGACAUGAGGAUCACCCAUGUAGAAGGGCUAAGCG [Eternabot (L2) Solution 70] (Eterna round: R97, puzzle: Exclusion 2) | 0.0852 |  | 0.0837 |  |  | 
AGAUGUAGAUACCGAUCCUACAUGAGGAUCACCCAUGUAGCUAGACGUGCCCGCGUCGCUCGUCAGACUACCAGUAG [salish99_TOv1_r3_090] (puzzle: Sensor v3, turn-off variant 1) |  |  |  | 0.252 | 0.248 | 0.269
UUCCUCUCUUCUCCGUCUCACAUGAGGAUCACCCAUGUAACAUAGGAUAUGCUUGGUAUUUAAAUGCAGAAGGAUGUUAGUAUU [JR_ExcNG3_Sub081] (Eterna round: R96, puzzle: Exclusion NG 3) | 0.0766 | 0.0211 | 0.0295 |  |  | 
ACCGAUGUGCAAGGAUAUGACAUGAGGAUCACCCAUGUCAAAACAAGAAGAACGGGUGUGCCUCCUUAGAAGGUGCACAAACGA [Eternabot solution 2] (Eterna round: R96, puzzle: Exclusion NG 2) | 0.0261 | 0.0171 | 0.024 |  |  | 
CUCUGCACGCUGCGGUCCUACAUGAGGAUCACCCAUGUGGUCUGGUGGCGUGGGUCGCCGGACUUGGCUCGUCUUGA [salish99_S_TOV1_R5_046] (Eterna round: R97, puzzle: Sensor, turn-off variant 1) | 0.019 |  | 0.0187 |  |  | 
GUACUGAAGCAUAGCUUUAGUCGUACAUGAGGAUCACCCAUGUAGGAUAUGGUAGGCUUUGCUUACUAGAAGGAUAGAGUGAUC [Mat - Exclusion NG 3 - Mod of JL - D71] (Eterna round: R96, puzzle: Exclusion NG 3) | 0.157 | 0.0868 | 0.109 |  |  | 
ACCGUGUGAGGAUAUCCGUAGCUGAGGCACCUCGCAAACAUGGAGAAGGCACAUGAGGAUCACCCAUGUGAACC [Eternabot (Original) Solution 27] (Eterna round: R97, puzzle: Exclusion 4) | 0.0471 |  | 0.0238 |  |  | 
GCCGAAAAUGUGAGGAUAUACCUAUGGAUACAUAGGUAGAAGGCACAUGAGGAUCACCCAUGUGUUUCAACGGC [Eli bmx4 4.21] (Eterna round: R97, puzzle: Brourd's mod of Exclusion 4) | 0.0948 |  | 0.0222 |  |  | 
GGUAUACAUGAGGAUCACCCAUGUCAGGAUAUGGCGGCGUCGGCGAAAGCGGAGGCGGCCAGAAGGGACGAUAG [AK-MS2ROC-r4-exclusion1-6.1] (Eterna round: R97, puzzle: Exclusion 1) | 0.0707 |  | 0.124 |  |  | 
AGUAACCGUCACGAAAGUGAUGGUUACACAAGUAAAUGUACAUGAGGAUCACCCAUGUCCUCAUUUGCUCGUCUUAU [Sensor 3 - 46] (puzzle: Sensor v3, turn-off variant 2) |  |  |  | 0.152 | 0.373 | 0.23
UAAUAGUGAGGAUAUACAGAAUCUGGGUCCCGCGUGUUGAGACAUGAGGAUCACCCAUGUAGAAGGCACAAAAU [Tetiage] (puzzle: Exclusion 2) |  |  |  |  | 0.112 | 
GAUCAACAUGAGGAUCACCCAUGUGAGGAUAUGAUACUAUGUACUUCGGUACAUAGUAUCAGAAGGCACAUUGA [Ex1-3: 42] (puzzle: Exclusion 1) |  |  |  |  | 0.0909 | 
ACAUGAGGAUCACCCAUGUCGAGUACAUGAGGAUCACCCAUGUAGGAUAUGGUUCGCUUUGCGUGCUAGAAGGAUAUGUGAUGA [salish99_ExNG3_r04_512] (Eterna round: R96, puzzle: Exclusion NG 3) | 0.488 | 0.229 | 0.326 |  |  | 
UAAGAAUACUGAGGAUAUGCUAGUUUAUCUCAAGCAGAAGGCGGACUCAACAUGAGGAUCACCCAUGUAAGACGGGUACUAGAU [Ex NG1 #13] (Eterna round: R96, puzzle: Exclusion NG 1) | 0.319 | 0.059 | 0.832 |  |  | 
CUACUACAUGAGGAUCACCCAUGUGAGGAUAUCAGUGGUGCUGCUAGGUAGUCCGGACUGAGAAGGCGCAUAGU [Mod-Malcom] (Eterna round: R97, puzzle: Exclusion 1) | 0.0431 |  | 0.0528 |  |  | 
AUUUAAUUUAGCGAGAUCACAUGAGGAUCACCCAUGUAUAUAUAGGAUAUCAGCUCGAAUAGAGCUGAGAAGGAUAUAUACCGC [ExNG3/7-A4] (Eterna round: R96, puzzle: Exclusion NG 3) |  | 0.0767 |  |  |  | 
